Results published in paper PMC10397247.

How the values were obtained:
4H3628-bA = target: T1, 4H3628-bA; experiment: two-hybrid library CCNG1;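 note: natural log of median RNA to DNA barcode read ratio; higher means stronger binding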
T1 chain: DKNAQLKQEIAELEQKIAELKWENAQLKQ

4H3817-bA = target: T2, 4H3817-bA; experiment: two-hybrid library CCNG1;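 note: natural log of median RNA to DNA barcode read ratio; higher means stronger binding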
T2 chain: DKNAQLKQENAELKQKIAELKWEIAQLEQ

4H3858-bA = target: T3, 4H3858-bA; experiment: two-hybrid library CCNG1;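 note: natural log of median RNA to DNA barcode read ratio; higher means stronger binding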
T3 chain: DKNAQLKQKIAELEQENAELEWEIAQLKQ

4H3926-bA = target: T4, 4H3926-bA; experiment: two-hybrid library CCNG1;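 note: natural log of median RNA to DNA barcode read ratio; higher means stronger binding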
T4 chain: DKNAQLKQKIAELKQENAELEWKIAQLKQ

4H3974-bA = target: T5, 4H3974-bA; experiment: two-hybrid library CCNG1;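 note: natural log of median RNA to DNA barcode read ratio; higher means stronger binding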
T5 chain: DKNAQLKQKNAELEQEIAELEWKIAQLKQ

4H570-bA = target: T6, 4H570-bA; experiment: two-hybrid library CCNG1;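 note: natural log of median RNA to DNA barcode read ratio; higher means stronger binding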
T6 chain: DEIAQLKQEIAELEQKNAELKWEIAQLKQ

4H591-bA = target: T7, 4H591-bA; experiment: two-hybrid library CCNG1
T7 chain: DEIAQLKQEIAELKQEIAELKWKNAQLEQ

4H626-bA = target: T8, 4H626-bA; experiment: two-hybrid library CCNG1
T8 chain: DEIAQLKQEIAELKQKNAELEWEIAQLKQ

4H850-bA = target: T9, 4H850-bA; experiment: two-hybrid library CCNG1
T9 chain: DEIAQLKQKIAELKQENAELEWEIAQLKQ

4H906-bA = target: T10, 4H906-bA; experiment: two-hybrid library CCNG1
T10 chain: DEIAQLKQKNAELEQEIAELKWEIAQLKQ

4H2935-AA = target: T11, 4H2935-AA; experiment: two-hybrid library CCmax
T11 chain: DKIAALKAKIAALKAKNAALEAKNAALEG

4H327-AA = target: T12, 4H327-AA; experiment: two-hybrid library CCmax; settings: mean of both orientations
T12 chain: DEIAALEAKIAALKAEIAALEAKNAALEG

4H3605-AA = target: T13, 4H3605-AA; experiment: two-hybrid library CCmax; settings: mean of both orientations
T13 chain: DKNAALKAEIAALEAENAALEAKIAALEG

4H3625-AA = target: T14, 4H3625-AA; experiment: two-hybrid library CCmax; settings: mean of both orientations
T14 chain: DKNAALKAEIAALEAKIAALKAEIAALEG

4H3664-AA = target: T15, 4H3664-AA; experiment: two-hybrid library CCmax; settings: mean of both orientations
T15 chain: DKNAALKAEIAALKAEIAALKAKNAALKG

4H369-AA = target: T16, 4H369-AA; experiment: two-hybrid library CCmax; settings: mean of both orientations
T16 chain: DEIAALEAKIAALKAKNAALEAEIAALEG

4H3922-AA = target: T17, 4H3922-AA; experiment: two-hybrid library CCmax; settings: mean of both orientations
T17 chain: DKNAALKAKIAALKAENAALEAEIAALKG

4H4033-AA = target: T18, 4H4033-AA; experiment: two-hybrid library CCmax; settings: mean of both orientations
T18 chain: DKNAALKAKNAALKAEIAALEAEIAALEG

4H481-AA = target: T19, 4H481-AA; experiment: two-hybrid library CCmax; settings: mean of both orientations
T19 chain: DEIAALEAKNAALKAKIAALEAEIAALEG

4H55-AA = target: T20, 4H55-AA; experiment: two-hybrid library CCmax; settings: mean of both orientations
T20 chain: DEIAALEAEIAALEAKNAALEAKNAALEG

4H662-AA = target: T21, 4H662-AA; experiment: two-hybrid library CCmax; settings: mean of both orientations
T21 chain: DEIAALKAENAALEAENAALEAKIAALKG

4H3354-bN = target: T22, 4H3354-bN; experiment: two-hybrid library CCNG1
T22 chain: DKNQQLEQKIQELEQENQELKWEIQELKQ

4H338-bN = target: T23, 4H338-bN; experiment: two-hybrid library CCNG1
T23 chain: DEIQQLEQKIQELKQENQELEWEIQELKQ

4H3427-bN = target: T24, 4H3427-bN; experiment: two-hybrid library CCNG1
T24 chain: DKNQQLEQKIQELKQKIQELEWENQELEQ

4H3782-bN = target: T25, 4H3782-bN; experiment: two-hybrid library CCNG1
T25 chain: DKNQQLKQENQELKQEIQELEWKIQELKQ

4H3855-bN = target: T26, 4H3855-bN; experiment: two-hybrid library CCNG1
T26 chain: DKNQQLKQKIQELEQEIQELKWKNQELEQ

4H4001-bN = target: T27, 4H4001-bN; experiment: two-hybrid library CCNG1
T27 chain: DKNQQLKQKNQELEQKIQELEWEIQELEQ

4H454-bN = target: T28, 4H454-bN; experiment: two-hybrid library CCNG1
T28 chain: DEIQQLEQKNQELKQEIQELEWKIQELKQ

4H568-bN = target: T29, 4H568-bN; experiment: two-hybrid library CCNG1
T29 chain: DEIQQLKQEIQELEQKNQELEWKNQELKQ

4H607-bN = target: T30, 4H607-bN; experiment: two-hybrid library CCNG1
T30 chain: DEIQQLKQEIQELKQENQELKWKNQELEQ

4H687-bN = target: T31, 4H687-bN; experiment: two-hybrid library CCNG1
T31 chain: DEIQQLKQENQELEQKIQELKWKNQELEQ

4H717-bN = target: T32, 4H717-bN; experiment: two-hybrid library CCNG1
T32 chain: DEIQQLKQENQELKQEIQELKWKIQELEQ

4H72-bN = target: T33, 4H72-bN; experiment: two-hybrid library CCNG1
T33 chain: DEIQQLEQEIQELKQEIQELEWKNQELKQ

4H754-bN = target: T34, 4H754-bN; experiment: two-hybrid library CCNG1
T34 chain: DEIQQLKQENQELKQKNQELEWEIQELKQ

4H797-bN = target: T35, 4H797-bN; experiment: two-hybrid library CCNG1
T35 chain: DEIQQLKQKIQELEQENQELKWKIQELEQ

4H883-bN = target: T36, 4H883-bN; experiment: two-hybrid library CCNG1
T36 chain: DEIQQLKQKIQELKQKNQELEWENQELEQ

4H908-bN = target: T37, 4H908-bN; experiment: two-hybrid library CCNG1
T37 chain: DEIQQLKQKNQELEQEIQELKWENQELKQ

4H918-bN = target: T38, 4H918-bN; experiment: two-hybrid library CCNG1
T38 chain: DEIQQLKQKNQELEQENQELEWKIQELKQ

4H953-bN = target: T39, 4H953-bN; experiment: two-hybrid library CCNG1
T39 chain: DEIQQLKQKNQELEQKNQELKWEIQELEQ

4H967-bN = target: T40, 4H967-bN; experiment: two-hybrid library CCNG1
T40 chain: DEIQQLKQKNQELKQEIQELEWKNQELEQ

For DKNAQLKQEIAELEQKIAELKWENAQLKQ [4H3628-bA], the interaction score (4H3628-bA) was 0.549, the interaction score (4H3817-bA) was 0.612 and the interaction score (4H3858-bA) was -0.214. It also gave an interaction score (4H3926-bA) of 0.307, an interaction score (4H3974-bA) of 1.31 and an interaction score (4H570-bA) of -0.226. It also gave an interaction score (4H591-bA) of -0.511, an interaction score (4H626-bA) of -1.6 and an interaction score (4H850-bA) of 0.124. It also gave an interaction score (4H906-bA) of -0.866.

DKIAALKAKIAALKAKNAALEAKNAALEG [4H2935-AA] showed an interaction score (4H2935-AA) of -1.28, an interaction score (4H327-AA) of -0.77 and an interaction score (4H3605-AA) of -0.818. It also gave an interaction score (4H3625-AA) of -1.65, an interaction score (4H3664-AA) of -1.44 and an interaction score (4H369-AA) of -1.13. For the same binder, the interaction score (4H3922-AA) was -1.89, the interaction score (4H4033-AA) was -1.05 and the interaction score (4H481-AA) was -1.6. For the same binder, the interaction score (4H55-AA) was 1.48 and the interaction score (4H662-AA) was -1.34.

For DKNQQLEQKIQELEQENQELKWEIQELKQ [4H3354-bN], the interaction score (4H3354-bN) was 1.43, the interaction score (4H338-bN) was -0.511 and the interaction score (4H3427-bN) was -0.405. The interaction score (4H3782-bN) was -1.06, the interaction score (4H3855-bN) was -0.269 and the interaction score (4H4001-bN) was -0.318. The interaction score (4H454-bN) was -0.726, the interaction score (4H568-bN) was -0.364 and the interaction score (4H607-bN) was -0.0582. It also gave an interaction score (4H687-bN) of -1.25, an interaction score (4H717-bN) of -0.894 and an interaction score (4H72-bN) of -1.09. For the same binder, the interaction score (4H754-bN) was -0.289, the interaction score (4H797-bN) was -0.685 and the interaction score (4H883-bN) was -0.871. The interaction score (4H908-bN) was -0.992, the interaction score (4H918-bN) was -0.605 and the interaction score (4H953-bN) was -0.946. For the same binder, the interaction score (4H967-bN) was -1.24.
